“And” between values parts separate entries of the source, which are not always exact repeats. Equal values may be shown once.
T1: full-length murine LRRC8A (homomeric hexameric channel) (mouse), Q80WG5
T1 chain: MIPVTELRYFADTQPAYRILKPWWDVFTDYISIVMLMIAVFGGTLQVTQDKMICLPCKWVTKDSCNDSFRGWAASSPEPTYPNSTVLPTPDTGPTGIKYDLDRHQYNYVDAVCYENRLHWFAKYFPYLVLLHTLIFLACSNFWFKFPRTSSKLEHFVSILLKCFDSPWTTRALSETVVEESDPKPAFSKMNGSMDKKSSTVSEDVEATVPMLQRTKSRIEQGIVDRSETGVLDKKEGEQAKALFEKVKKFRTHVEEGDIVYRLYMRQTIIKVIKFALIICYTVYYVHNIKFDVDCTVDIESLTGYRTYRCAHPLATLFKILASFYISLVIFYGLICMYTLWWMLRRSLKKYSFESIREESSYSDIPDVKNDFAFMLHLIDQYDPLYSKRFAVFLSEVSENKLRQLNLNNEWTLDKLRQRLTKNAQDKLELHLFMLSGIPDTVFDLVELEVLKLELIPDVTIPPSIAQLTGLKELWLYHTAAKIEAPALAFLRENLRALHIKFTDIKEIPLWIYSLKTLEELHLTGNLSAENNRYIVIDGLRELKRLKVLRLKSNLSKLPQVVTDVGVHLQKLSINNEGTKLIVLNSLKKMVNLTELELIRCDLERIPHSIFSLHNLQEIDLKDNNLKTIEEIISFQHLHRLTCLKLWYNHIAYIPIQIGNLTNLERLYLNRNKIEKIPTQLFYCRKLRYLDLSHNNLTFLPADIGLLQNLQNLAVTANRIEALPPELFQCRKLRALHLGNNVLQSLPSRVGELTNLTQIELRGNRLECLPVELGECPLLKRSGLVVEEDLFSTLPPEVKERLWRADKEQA


Tests used:
[1] = target: T2, full-length murine LRRC8A (homomeric hexameric channel) (mouse, UniProt Q80WG5); experiment: cell-based or functional assay
[2] = target: T3, LRR domain of LRRC8A (soluble cytoplasmic leucine-rich repeat domain of mouse LRRC8A) (Mus musculus, UniProt Q80WG5, chemically biotinylated with amine-reactive NHS-PEG4-Biotin for ELISA and SPR); experiment: SPR; Biacore T100; chemically biotinylated LRR domain immobilised on streptavidin chip (~100 RU), sybody as analyte; 20 °C, 10 mM HEPES pH 7.4, 150 mM NaCl, 0.5 mM EDTA, 0.05% Tween 20; multi-cycle kinetics (Sb1, Sb3, Sb4, Sb5) or single-cycle kinetics (Sb2); 1:1 binding model; conditions: both partners purified
T3 construct: LRR domain of mouse LRRC8A, residues 398-810 of NP_808393.1; Used without biotin in SEC and biotinylated in SPR and ELISA; also called LRRC8A-cytosolic domain (LRR); LRRC8A-LRR domain; not shown: SBP, N-terminal, cleaved; myc, N-terminal, cleaved

[3] = target: T2, full-length murine LRRC8A (homomeric …); experiment: cryo-EM structure; sybody added to purified full-length LRRC8A at a molar ratio sybody/LRRC8A monomer of 1.25-1.5 (0.5 for Sb4_(0.5)), no further chromatography; C3 symmetry imposed; conditions: both partners purified
[4] = target: T1, full-length murine LRRC8A (homomeric …); experiment: as above; conditions: remark: other sources report otherwise

Binder | endogenous VRAC current density in HEK293 cells expressing Sb5 compared to non-transfected cells, whole-cell patch clamp, 125 mM (about 50% increase) and 175 mM intracellular salt [1] | Kd [2] | koff [2] | stoichiometry N [3] | stoichiometry N [4] | endogenous VRAC current density in HEK293 cells expressing Sb4 compared to non-transfected cells, whole-cell patch clamp, 125 mM (about 50% increase) and 175 mM intracellular salt [1] | current density of endogenous VRAC in HEK293 cells, whole-cell patch clamp, 125 mM intracellular salt, 1 µM Sb1 in the pipette solution [1]
sybody Sb5^LRRC8A (VHH, concave library; Synthetic nanobody selected by ribosome and phage display against full-length LRRC8A; For electrophysiology expressed in HEK293 cells with C-terminal Venus-myc-SBP; source: E. coli MC1061, periplasmic expression, purified (Ni-NTA, SEC on Superdex 75)) VHH: QVQLVESGGGLVQAGGSLRLSCAASGFPVAQEIMTWYRQAPGKEREWVAAISSIGDTTAYADSVKGRFTISRDNAKNTVYLQMNSLKPEDTAVYYCAVNVGFTYKGQGTQVTVSA | ~2.3 fold increase | 175 nM and 170 nM | 0.199 s⁻¹ and 0.242 s⁻¹ |  |  |  | 
sybody Sb3^LRRC8A (VHH, residues 1-120 modelled; loop library; Synthetic nanobody selected by ribosome and phage display against full-length LRRC8A; For electrophysiology expressed in HEK293 cells with C-terminal Venus-myc-SBP; source: E. coli MC1061, periplasmic expression, purified (Ni-NTA, SEC on Superdex 75)) VHH: QVQLVESGGGLVQAGGSLRLSCAASGFPVMNAGMYWYRQAPGKEREWVAAIESEGTSTYYADSVKGRFTISRDNAKNTVYLQMNSLKPEDTAVYYCNVKDVGDNHFPYDYWGQGTQVTVSA |  | 800 nM and 913 nM | 0.104 s⁻¹ and 0.113 s⁻¹ | 6 sybodies per hexameric channel |  |  | 
full-length murine LRRC8A (homomeric hexameric channel), Q80WG5 1-810 (natural protein) MIPVTELRYFADTQPAYRILKPWWDVFTDYISIVMLMIAVFGGTLQVTQDKMICLPCKWVTKDSCNDSFRGWAASSPEPTYPNSTVLPTPDTGPTGIKYDLDRHQYNYVDAVCYENRLHWFAKYFPYLVLLHTLIFLACSNFWFKFPRTSSKLEHFVSILLKCFDSPWTTRALSETVVEESDPKPAFSKMNGSMDKKSSTVSEDVEATVPMLQRTKSRIEQGIVDRSETGVLDKKEGEQAKALFEKVKKFRTHVEEGDIVYRLYMRQTIIKVIKFALIICYTVYYVHNIKFDVDCTVDIESLTGYRTYRCAHPLATLFKILASFYISLVIFYGLICMYTLWWMLRRSLKKYSFESIREESSYSDIPDVKNDFAFMLHLIDQYDPLYSKRFAVFLSEVSENKLRQLNLNNEWTLDKLRQRLTKNAQDKLELHLFMLSGIPDTVFDLVELEVLKLELIPDVTIPPSIAQLTGLKELWLYHTAAKIEAPALAFLRENLRALHIKFTDIKEIPLWIYSLKTLEELHLTGNLSAENNRYIVIDGLRELKRLKVLRLKSNLSKLPQVVTDVGVHLQKLSINNEGTKLIVLNSLKKMVNLTELELIRCDLERIPHSIFSLHNLQEIDLKDNNLKTIEEIISFQHLHRLTCLKLWYNHIAYIPIQIGNLTNLERLYLNRNKIEKIPTQLFYCRKLRYLDLSHNNLTFLPADIGLLQNLQNLAVTANRIEALPPELFQCRKLRALHLGNNVLQSLPSRVGELTNLTQIELRGNRLECLPVELGECPLLKRSGLVVEEDLFSTLPPEVKERLWRADKEQA |  |  |  |  | 6 subunits |  | 
sybody Sb2^LRRC8A (VHH, loop library; Synthetic nanobody selected by ribosome and phage display against full-length LRRC8A; For electrophysiology expressed in HEK293 cells with C-terminal Venus-myc-SBP; source: E. coli MC1061, periplasmic expression, purified (Ni-NTA, SEC on Superdex 75)) VHH: QVQLVESGGGLVQAGGSLRLSCAASGFPVYQAWMWWYRQAPGKEREWVAAIESEGQYTWYADSVKGRFTISRDNAKNTVYLQMNSLKPEDTAVYYCNVKDTGHTTNQYDYWGQGTQVTVSA |  | 35 nM and 60 nM | 0.003 s⁻¹ | 6 sybodies per hexameric channel |  |  | 
sybody Sb4^LRRC8A (VHH, convex library; Synthetic nanobody selected by ribosome and phage display against full-length LRRC8A; For electrophysiology expressed in HEK293 cells with C-terminal Venus-myc-SBP; source: E. coli MC1061, periplasmic expression, purified (Ni-NTA, SEC on Superdex 75)) VHH: QVQLVESGGGSVQAGGSLRLSCAASGYIYQIEYLGWFRQAPGKEREGVAALATWNGQTYYADSVKGRFTVSLDNAKNTVYLQMNSLKPEDTALYYCAAAYEGDTSPLYYEEYGYWGQGTQVTVSA |  | 27 nM and 17 nM | 0.064 s⁻¹ |  |  | ~5 fold increase | 
sybody Sb1^LRRC8A (VHH, residues 1-116 modelled; concave library; Synthetic nanobody selected by ribosome and phage display against full-length LRRC8A; N-terminal pelB leader for periplasmic expression; For electrophysiology also expressed in HEK293 cells with C-terminal Venus-myc-SBP; source: E. coli MC1061, periplasmic expression, purified (Ni-NTA, SEC on Superdex 75)) VHH: QVQLVESGGGLVQAGGSLRLSCAASGFPVGRHFMYWYRQAPGKEREWVAAIYSYGEYTEYADSVKGRFTISRDNAKNTVYLQMNSLKPEDTAVYYCYVYVGNEYWGQGTQVTVSA |  | 24 nM and 22 nM | 0.03 s⁻¹ and 0.037 s⁻¹ | 6 sybodies per hexameric channel |  |  | ~4 fold reduction

From paper PMC8440666, “Allosteric modulation of LRRC8 channels by targeting their cytoplasmic domains” (Nature Communications, 2021)
